Experiments:
[1] = molecular target: T1, SARS-CoV-2 spike on whole virus (SARS-CoV-2/human/AUS/VIC01/2020, Victoria) (SARS-CoV-2, UniProt P0DTC2 14-1273)
[2] = molecular target: T2, SARS-CoV-2 spike protein on authentic virus, strain SARS-CoV-2/human/AUS/VIC01/2020 (Victoria) (SARS-CoV-2, UniProt P0DTC2 14-1273); assay: calculated from whole-virus ELISA binding and FRNT50
T2 construct: whole, on cells

[3] = molecular target: T2, SARS-CoV-2 spike protein on authentic …; assay: cell-based or functional assay
[4] = molecular target: SARS-CoV-2 spike protein on authentic virus, strain B.1.1.7 (SARS-CoV-2, UniProt P0DTC2 14-1273); assay: cell-based or functional assay
[5] = molecular target: T2, SARS-CoV-2 spike protein on authentic …; assay: cell-based or functional assay; remark: listed apart in the source
[6] = molecular target: T2, SARS-CoV-2 spike protein on authentic …; assay: whole-virus capture ELISA, half-maximal binding
[7] = molecular target: T1, SARS-CoV-2 spike on whole virus …; assay: cell-based or functional assay

B1: mAb 88 (antibody, V domains shown)
VH: QLQLQESGPGLVKPSQTLSLTCTVSGGSISSGSYNWTWIRQPAGKGLEWIGRIYNSGSTNYNPSLKSRVTISVDTSKNQLSLKVRSVTAADTAVYYCARHCSGGTCYPKYYYGMDVWGQGTTVTVSS
VL: QSALTQPPSVSEAPRQRVTISCSGSSSNIGNNAVNWYQQFPGKAPKLLIYYDDLLPSGVSDRFSGSKSGTSASLAISGVQSEDEADYYCAAWDDSLNVVVFGGGTKLTVL
With B1 the “EC50 (read off the curve)” value [1] was roughly 0.2 nM.

B2: mAb 40 (antibody, V domains shown)
VH: QVQLVESGGGLVQPGGSLRLSCAVSGFTVSRNYMSWVRQAPGKGLEWVSLIYSGGSTFYADSVKGRFTISRDNSKNTLYLQMNSLRAEDTAVYYCARDLFHRSGYHDYWGQGTLVTVSS
VL: not shown
B2 was tested, and the “EC50 (read off the curve)” value [1] was roughly 0.3 nM.

B3: antibody 159, full-length IgG (antibody, V domains shown)
VH: EVQLVESGGGVVQPGRSLRLSCAASGFTFSSYGMHWVRQAPGKGLEWVALISYDGGNRYYADSVKGRFTISRDNSKNTLYLQMNRLRAEDTAMYYCAKDRDDGWDWYYFMDVWGKGTTVTVSS
VL: DIQLTQSPGTLSLSPGERATLSCRASQSISGNYLAWYQHKPGQAPRLLIYGASTRATGIPDRFSGSGSGTDFTLTISRLEPEDFAVYYCQQYGSSYTFGQGTKVEIK
B3 was tested, and the “% Occupancy” value [2] was 30%, the “Neutralisation IC50” value [3] was 0.08 nM and the “B.1.1.7/Victoria Ratio of IC50” value [4] was 5.71. The “IC50 (ug/ml), FRNT” value [4] was 0.061 µg/mL, the “IC50 (ug/ml), FRNT” value [5] was 0.011 µg/mL and the Kd [6] was 0.19 nM.

B4: mAb 253H165L (antibody, V domains shown)
VH: not shown
VL: DIVMTQSPGTLSLSPGERATLSCRASQSVRSSYLAWYQQKPGQAPRLLIYGASRRGTGIPDRFSGSGSGTDFTLTISRLEPEDFAVYYCQQYGSSPWTFGQGTKVEIK
B4 was tested, and the “EC50 (read off the curve)” value [1] was roughly 0.1 nM and the “Neutralisation IC50 (FRNT)” value [7] was 0.003 µg/mL.

B5: mAb 158 (antibody, V domains shown)
VH: EVQLLESGGDLIQPGGSLRLSCAASGVTVSSNYMSWVRQAPGKGLEWVSIIYPGGSTFYADSVKGRFTISRDNSKNTLYLQMHSLRAEDTAVYYCARDLGSGDMDVWGKGTTVTVSS
VL: DIVMTQSPSFLSASVGDRVTITCRASQGISSYLAWYQQKPGKAPKLLIQAASTLQSGVPSRFSGSGSGTEFTLTISSLQPEDFATYYCQQLNSYRYTFGQGTKVEIK
In the case of B5, the “EC50 (read off the curve)” value [1] is reported as roughly 0.5 nM and the “Neutralisation IC50 (FRNT)” value [7] is reported as 0.034 µg/mL.

B6: mAb 316 (antibody, V domains shown)
VH: not shown
VL: QAVLTQPPSASGSPGQSVTISCTGTSSDVGGYNYVSWYQQHPGKAPKLMIYEVSKRPSGVPDRFSGSKSGNTASLTVSGLQAEDEADYYCSSYAGSNHWVFGGGTKLTVL
In the case of B6, the “EC50 (read off the curve)” value [1] is reported as roughly 0.1 nM and the “Neutralisation IC50 (FRNT)” value [7] is reported as 0.01 µg/mL.

B7: antibody 316, full-length IgG (antibody, V domains shown)
VH: not shown
VL: QAVLTQPPSASGSPGQSVTISCTGTSSDVGGYNYVSWYQQHPGKAPKLMIYEVSKRPSGVPDRFSGSKSGNTASLTVSGLQAEDEADYYCSSYAGSNHWVFGGGTKLTVL
notes: also called mAb 316; 316 IgG
With B7 the “% Occupancy” value [2] was 35.4%, the “Neutralisation IC50” value [3] was 0.08 nM and the “IC50 (ug/ml), FRNT” value [4] was 0.024 µg/mL. The “IC50 (ug/ml), FRNT” value [5] was 0.018 µg/mL and the Kd [6] was 0.13 nM.

Source: US20240043507A1 (RQ BIOTECHNOLOGY, published 2024)
